Measurements taken from IntAct's records for PubMed 24114786.

B1: BRASSINOSTEROID … 1-associated receptor kinase 1 (Arabidopsis thaliana (Mouse-ear cress)), Q94F62 (parent)
chain: MERRLMIPCFFWLILVLDLVLRVSGNAEGDALSALKNSLADPNKVLQSWDATLVTPCTWFHVTCNSDNSVTRVDLGNANLSGQLVMQLGQLPNLQYLELYSNNITGTIPEQLGNLTELVSLDLYLNNLSGPIPSTLGRLKKLRFLRLNNNSLSGEIPRSLTAVLTLQVLDLSNNPLTGDIPVNGSFSLFTPISFANTKLTPLPASPPPPISPTPPSPAGSNRITGAIAGGVAAGAALLFAVPAIALAWWRRKKPQDHFFDVPAEEDPEVHLGQLKRFSLRELQVASDNFSNKNILGRGGFGKVYKGRLADGTLVAVKRLKEERTQGGELQFQTEVEMISMAVHRNLLRLRGFCMTPTERLLVYPYMANGSVASCLRERPESQPPLDWPKRQRIALGSARGLAYLHDHCDPKIIHRDVKAANILLDEEFEAVVGDFGLAKLMDYKDTHVTTAVRGTIGHIAPEYLSTGKSSEKTDVFGYGVMLLELITGQRAFDLARLANDDDVMLLDWVKGLLKEKKLEALVDVDLQGNYKDEEVEQLIQVALLCTQSSPMERPKMSEVVRMLEGDGLAERWEEWQKEEMFRQDFNYPTHHPAVSGWIIGDSTSQIENEYPSGPR
B2: A-type flagellin (Pseudomonas aeruginosa), P21184 (parent)
chain: MALTVNTNIASLNTQRNLNNSSASLNTSLQRLSTGSRINSAKDDAAGLQIANRLTSQVNGLNVATKNANDGISLAQTAEGALQQSTNILQRMRDLSLQSANGSNSDSERTALNGEVKQLQKELDRISNTTTFGGRKLLDGSFGVASFQVGSAANEIISVGIDEMSAESLNGTYFKADGGGAVTAATASGTVDIAIGITGGSAVNVKVDMKGNETAEQAAAKIAAAVNDANVGIGAFSDGDTISYVSKAGKDGSGAITSAVSGVVIADTGSTGVGTAAGVTPSATAFAKTNDTVAKIDISTAKGAQSAVLVIDEAIKQIDAQRADLGAVQNRFDNTINNLKNIGENVSAARGRIEDTDFAAETANLTKNQVLQQAGTAILAQANQLPQSVLSLLR

Variants of: B1
Details: with flica_pseai fliC

Row | Variant | effect of a mutation on the interaction
1 | F60A;F144A | disrupting interaction strength
2 | L53A | decreasing interaction strength
3 | V54Y | decreasing interaction strength
4 | Y96A | decreasing interaction strength

Variants of: B1
Details: with fls2_arath FLS2, Q9FL28
Target sequence in this assay (Q9FL28 whole entry): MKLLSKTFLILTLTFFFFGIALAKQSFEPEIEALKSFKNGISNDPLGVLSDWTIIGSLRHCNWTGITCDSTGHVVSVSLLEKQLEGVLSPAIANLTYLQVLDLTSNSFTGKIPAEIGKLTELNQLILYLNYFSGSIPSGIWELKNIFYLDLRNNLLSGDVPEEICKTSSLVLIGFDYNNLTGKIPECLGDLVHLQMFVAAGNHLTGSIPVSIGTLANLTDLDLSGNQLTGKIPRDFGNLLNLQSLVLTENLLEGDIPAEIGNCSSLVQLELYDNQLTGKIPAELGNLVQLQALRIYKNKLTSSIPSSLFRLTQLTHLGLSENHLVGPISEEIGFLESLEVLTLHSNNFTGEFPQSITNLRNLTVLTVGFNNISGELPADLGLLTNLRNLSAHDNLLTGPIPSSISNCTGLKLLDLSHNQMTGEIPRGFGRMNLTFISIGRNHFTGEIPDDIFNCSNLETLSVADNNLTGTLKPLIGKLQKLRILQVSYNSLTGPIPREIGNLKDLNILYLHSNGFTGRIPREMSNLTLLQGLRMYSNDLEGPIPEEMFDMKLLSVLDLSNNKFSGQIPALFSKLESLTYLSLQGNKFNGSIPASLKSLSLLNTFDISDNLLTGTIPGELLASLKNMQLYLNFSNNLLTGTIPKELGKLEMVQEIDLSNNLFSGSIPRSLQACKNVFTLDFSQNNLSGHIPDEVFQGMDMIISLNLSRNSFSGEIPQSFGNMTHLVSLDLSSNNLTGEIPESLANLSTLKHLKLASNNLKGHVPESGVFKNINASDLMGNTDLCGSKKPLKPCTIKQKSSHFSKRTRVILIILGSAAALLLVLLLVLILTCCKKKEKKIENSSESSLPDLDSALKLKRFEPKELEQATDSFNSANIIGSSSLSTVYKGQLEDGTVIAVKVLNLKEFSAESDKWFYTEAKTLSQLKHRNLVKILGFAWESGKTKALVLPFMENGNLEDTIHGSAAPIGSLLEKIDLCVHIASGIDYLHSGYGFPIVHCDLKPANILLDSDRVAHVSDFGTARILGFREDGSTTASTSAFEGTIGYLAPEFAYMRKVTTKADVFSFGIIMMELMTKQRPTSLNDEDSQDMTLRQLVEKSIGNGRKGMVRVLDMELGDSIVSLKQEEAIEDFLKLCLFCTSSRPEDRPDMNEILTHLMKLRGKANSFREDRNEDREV

Row | Variant | effect of a mutation on the interaction
5 | F60A;F144A | disrupting interaction strength
6 | L53A | disrupting interaction strength
7 | V54Y | disrupting interaction strength
8 | Y96A | disrupting interaction strength

Variants of: B2
Details: with fls2_arath FLS2, Q9FL28
Target sequence in this assay (Q9FL28 whole entry): as above

Row | Variant | effect of a mutation on the interaction
9 | A46Y | decreasing interaction strength
10 | D43A | disrupting interaction strength
11 | D44A | disrupting interaction strength

Variants of: B2
Details: with bak1_arath BAK1, Q94F62

Row | Variant | effect of a mutation on the interaction
12 | G47A | decreasing interaction strength
13 | G47Y | disrupting interaction strength
